± gives the uncertainty stated by the source.
Test: amyloid nucleation score (Sup35N fusion, yeast selection) (log enrichment); library NNK1; higher = more nucleation; inactive = no reads after selection
How it was run: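 DiMSum was used to calculate nucleation scores as log enrichment of output over input reads, centred on the mode score of non-aggregating sequences. Sequences with fewer than 100 input reads were not scored. Input and output came from Illumina sequencing of plasmid inserts in psi-negative yeast expressing peptides of 20 random codons fused to Sup35N, induced 24 hours with 100 μM copper sulfate and then grown 7 days at 30°C on medium lacking adenine and uracil.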

| Substance | amyloid nucleation score |
| --- | --- |
| WGEFYVNSSNFVNMQSVWQQ | -0.257 ± 1.7 |
| WGNLASRLQALDQVRRSGSM | -0.56 ± 0.57 |
| WGQLIRGRNRSSQGEEMRYL | -0.148 ± 0.26 |
| WGSCISFRNRGMCLILDSVC | 0.037 ± 0.37 |
| WGTVYVPV | 1.72 ± 0.49 |
| WGVALRDAATAVDVGLVVRF | 0.37 ± 0.62 |
| WGYNRLNDDELLIMSKFLRQ | 1 ± 0.48 |
| WHASNFLTSSSHKMSSNWTS | 0.67 ± 0.48 |
| WHPRSLVPPTRL | 0.758 ± 0.56 |
| WHRGYGMLTRLRWRPDTVLF | -0.052 ± 1.2 |
| WICQTGRFNELTHRCCVWFF | 0.762 ± 0.47 |
| WIMVFWEFVNLTCNNRILDN | -0.588 ± 0.72 |
| WIPGRLLSAVKVGSNSLVF | -0.637 ± 0.62 |
| WISEYGWFRIKFAWAAYGYR | -0.023 ± 0.72 |
| WIYRFPHKMHVIEDVRSVN | 0.894 ± 0.58 |
| WKFLFVVFIYSNYVVGLLDN | -0.915 ± 0.67 |
| WKGMMQFDMSHSCVYWWKCA | 0.71 ± 1.1 |
| WKKPIQGSVW | 0.295 ± 0.49 |
| WKQLTCWSEILDTIDSL | 0.901 ± 0.79 |
| WLGLGVRALRSENVCCRAFH | 1.1 ± 0.49 |
| WLGSYIVFLIRMETYDWWIV | -0.114 ± 0.38 |

| Substance | amyloid nucleation score |
| --- | --- |
| WLHNIQRYTFFSKLRNQRRR | -0.442 ± 0.76 |
| WLLIRKGGVRFKIQYRHQHS | 1.73 ± 0.37 |
| WLLISSALIIYVRHGLIRSM | -0.455 ± 0.81 |
| WLLMSCTHCSCLKMRIHWKG | -1.1 ± 2.4 |
| WLLWLTSSYKHQWMT | -1.7 ± 1.4 |
| WLPFLVFCRGESYYRLDRSS | 2.42 ± 0.091 |
| WLSSKGRQSMSYCAYTMRTP | -0.247 ± 0.34 |
| WLWINPMEVDYGVLTRLEKT | -0.213 ± 0.26 |
| WMDTLVSIGRGGMLRVSCSG | 0.519 ± 0.49 |
| WMKVLVPFRMEAASGSLFCS | -1.22 ± 1.3 |
| WMWGGGRWRRVPRRCMVVGR | -0.054 ± 0.4 |
| WNEVILILDNCAIVCYDILT | 4.05 ± 0.054 |
| WNEWRGHVTILGDLYSYRHT | 3.6 ± 0.16 |
| WNIRGVMGLSNVR | -0.058 ± 0.29 |
| WNSLSWRVRMRGDNQYRRGR | 0.675 ± 1 |
| WPRNRHGVVILLVVIANSCS | -0.379 ± 0.76 |
| WPRVGETSRVNLTTGIMS | -0.297 ± 0.29 |
| WPVYEDKACCHVDAHKGEAT | 0.838 ± 0.48 |
| WQQGLVCQI | 0.241 ± 0.37 |
| WQRNDQWMVVQVITVSV | 0.176 ± 0.47 |
| WRDTDCGLIN | inactive |

| Substance | amyloid nucleation score |
| --- | --- |
| WRESSGTNLSAFVPKDM | -0.675 ± 0.81 |
| WRGRVTKFRVLH | 0.105 ± 0.53 |
| WRLMRECTFSVS | 0.137 ± 0.29 |
| WRLTSS | -0.809 ± 0.45 |
| WRSSSFSGIWYVSVGYNASL | -0.455 ± 0.4 |
| WSFLDWWIRSRSLITVCVVS | -0.348 ± 0.46 |
| WSGWAKPSHYVALGRVGSWE | -0.075 ± 0.63 |
| WSLQKRG | inactive |
| WSLVDDPLVFERLFWPCYQ | 0.142 ± 0.31 |
| WSSYTFR | 0.839 ± 0.63 |
| WSTGDVLVLVKLYYAFMCVI | -0.819 ± 0.27 |
| WSTLVKRSDFCVHWVLFGSG | -0.179 ± 0.46 |
| WSTQSLCFGPT | 0.012 ± 0.63 |
| WSVISIEASLCRQVPLYANT | 0.26 ± 0.65 |
| WSYLQY | -0.364 ± 0.79 |
| WTAWADNSACSLCGQN | 0.859 ± 0.73 |
| WTISSKGFFCWINCGLLQKR | 5.704 ± 0.05 |
| WTLCMPKCGWRQSFSLRSRR | -0.294 ± 0.47 |
| WTYWGSCGGLWSKIFIYFLL | 3.66 ± 0.078 |
| WVAINPCV | 0.464 ± 0.88 |
| WVARVMCRKNSYSMLIMWIC | -0.102 ± 0.22 |

— the supplement of paper PMC12042874
